These results are taken from patent US20180371091A1 (JOUNCE THERAPEUTICS, published 2018).

Bounds are passed on as bounds.

The koff is the first-order rate constant of dissociation. Read a high koff as fast dissociation. Usually kon stands for the rate constant with which the complex forms. A low value points to slower complex formation.

The target in assay [1] is T1, mouse ICOS-hFc (homodimeric, bivalent) (mouse; human, UniProt Q9WVS0 21-142).
T1 construct: also called mICOS-hFc; mouse ICOS-Fc; not shown: human IgG1 Fc (IgG1 backbone)
T1 sequence: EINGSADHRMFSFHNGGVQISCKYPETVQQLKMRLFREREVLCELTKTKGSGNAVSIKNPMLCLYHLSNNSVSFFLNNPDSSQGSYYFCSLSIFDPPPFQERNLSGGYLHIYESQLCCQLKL
As to the kind of experiment: BLI. Here is the method: (§1) Cross-reactivity measurements were conducted using BLI technology with antibody panels being screened for binding to human, mouse, and cynomolgus ICOS-Fc fusions (homodimeric, bivalent forms).

Assay [2] deals with T2, mouse ICOS (full length, on cells) (mouse, UniProt Q9WVS0 21-200).
T2 construct: also called CHO-mICOS; mouse ICOS+ CHO cells
T2 sequence: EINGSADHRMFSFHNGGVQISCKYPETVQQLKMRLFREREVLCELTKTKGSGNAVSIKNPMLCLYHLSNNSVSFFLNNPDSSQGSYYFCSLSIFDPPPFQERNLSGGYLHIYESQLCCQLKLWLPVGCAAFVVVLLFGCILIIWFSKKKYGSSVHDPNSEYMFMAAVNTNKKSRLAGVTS
As to the kind of experiment: flow cytometry on ICOS+ CHO cells. From the text:
To assess specificity, binding to human ICOS+ CHO cells and mouse ICOS+ CHO cells was individually analyzed by flow cytometry. As a control to screen out pan-reactive antibodies, staining on CHO cells lacking ICOS receptor expression was also examined. All of the selected antibodies bound to human and mouse ICOS+ CHO cells, and not to CHO cells lacking ICOS expression.
Background: A flow cytometer gives signals particle by particle.

Assay [3] concerns the target T3, human ICOS-hFc (homodimeric, bivalent) (human, UniProt Q9Y6W8 21-141).
T3 construct: also called hICOS-Fc; hICOS-hFc; not shown: human IgG1 Fc (IgG1 backbone)
T3 sequence: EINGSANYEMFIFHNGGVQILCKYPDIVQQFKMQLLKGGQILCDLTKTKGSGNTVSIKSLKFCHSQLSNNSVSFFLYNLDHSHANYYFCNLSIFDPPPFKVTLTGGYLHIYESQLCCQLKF
Nature of the assay: BLI, bivalent binding to homodimeric ICOS-Fc. Here is the method:
as §1
(In general: BLI is a label-free optical method that tracks binding on a fibre tip over time.)

Assay [4] addresses T4, cynomolgus ICOS-Fc (homodimeric, bivalent) (cynomolgus monkey, UniProt Q9Y6W8 21-140 (human entry)).
T4 construct: also called cynoICOS-Fc; cyno ICOS-Fc; not shown: human IgG1 Fc (IgG1 backbone)
T4 chain: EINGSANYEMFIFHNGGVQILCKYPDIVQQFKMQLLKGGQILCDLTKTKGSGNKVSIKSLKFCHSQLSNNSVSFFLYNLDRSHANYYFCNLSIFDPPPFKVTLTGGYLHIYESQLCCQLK
As to the kind of experiment: BLI, bivalent binding to homodimeric ICOS-Fc. Here is the method: as §1

In assay [5] the target is T5, human CD28 Fc fusion (dimeric) (human, UniProt P10747 19-152).
T5 construct: not shown: Fc part not described
T5 sequence (P10747 19-152): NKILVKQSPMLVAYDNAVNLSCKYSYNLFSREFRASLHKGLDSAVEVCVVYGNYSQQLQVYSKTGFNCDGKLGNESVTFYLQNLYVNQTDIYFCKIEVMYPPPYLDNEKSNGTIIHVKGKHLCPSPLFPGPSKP
As to the kind of experiment: binding to dimeric Fc fusions of CD28 family members. Here is the method:
(§2) To further assess the specificity of the anti-ICOS antibodies, the antibodies were screened for binding to additional members of the CD28 protein family (CD28, BTLA, PD-1 and CTLA-4). […] Specifically, binding to Fc fusions (of CD28, BTLA, PD-1 and CTLA-4) in dimeric forms was evaluated, and no binding was observed. For a subset of the CD28 family members, mouse or human protein was over-expressed on the surface of HEK293 and CHOK1 cells. No binding of antibody above background relative to untransduced parental cells was observed.

Assay [6] concerns the target T6, mouse CD28 Fc fusion (dimeric) (mouse, UniProt P31041 20-150).
T6 construct: not shown: Fc part not described
T6 sequence (looked up): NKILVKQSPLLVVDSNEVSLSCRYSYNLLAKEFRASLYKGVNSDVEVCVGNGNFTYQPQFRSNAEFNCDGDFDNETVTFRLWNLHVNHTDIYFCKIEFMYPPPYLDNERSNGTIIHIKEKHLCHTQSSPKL
Described as above. Here is the method: as §2

The target of assay [7] is T7, human BTLA Fc fusion (dimeric) (human, UniProt Q7Z6A9 31-157).
T7 construct: not shown: Fc part not described
T7 sequence (looked up): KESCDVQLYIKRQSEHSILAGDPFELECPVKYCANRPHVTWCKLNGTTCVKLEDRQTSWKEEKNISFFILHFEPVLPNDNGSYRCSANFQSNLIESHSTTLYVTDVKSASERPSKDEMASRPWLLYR
Described as above. Here is the method: as §2

Assay [8] addresses T8, mouse BTLA Fc fusion (dimeric) (mouse, UniProt Q7TSA3 30-183).
T8 construct: not shown: Fc part not described
T8 sequence (looked up): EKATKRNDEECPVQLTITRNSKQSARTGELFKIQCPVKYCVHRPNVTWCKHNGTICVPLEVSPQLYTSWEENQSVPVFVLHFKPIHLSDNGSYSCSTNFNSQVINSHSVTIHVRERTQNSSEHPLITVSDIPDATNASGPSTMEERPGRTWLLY
The description is as above. The procedure:
as §2

The target in assay [9] is T9, human PD-1 Fc fusion (dimeric) (human, UniProt Q15116 25-167).
T9 construct: not shown: Fc part not described
T9 sequence (Q15116 25-167): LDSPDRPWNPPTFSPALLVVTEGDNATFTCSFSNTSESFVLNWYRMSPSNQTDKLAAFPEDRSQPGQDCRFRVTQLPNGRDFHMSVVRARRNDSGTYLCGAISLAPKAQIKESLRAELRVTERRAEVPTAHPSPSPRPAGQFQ
Described as above. Here is the method:
as §2

In assay [10] the target is T10, mouse PD-1 Fc fusion (dimeric) (mouse, UniProt Q02242 25-167).
T10 construct: not shown: Fc part not described
T10 sequence (looked up): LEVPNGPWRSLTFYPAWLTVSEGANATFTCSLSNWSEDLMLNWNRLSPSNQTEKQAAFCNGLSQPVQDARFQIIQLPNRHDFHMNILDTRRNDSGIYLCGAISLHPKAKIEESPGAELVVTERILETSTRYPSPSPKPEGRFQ
The assay is described as above. The procedure:
as §2

The target of assay [11] is T11, human CTLA-4 Fc fusion (dimeric) (human, UniProt P16410 37-162).
T11 construct: not shown: Fc part not described
T11 sequence (looked up): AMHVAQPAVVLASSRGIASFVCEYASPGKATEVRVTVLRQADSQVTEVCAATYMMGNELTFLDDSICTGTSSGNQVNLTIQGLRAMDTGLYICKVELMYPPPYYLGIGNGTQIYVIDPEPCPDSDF
The assay is described as above. The procedure:
as §2

The target of assay [12] is T12, mouse CTLA-4 Fc fusion (dimeric) (mouse, UniProt P09793 36-162).
T12 construct: not shown: Fc part not described
Described as above. The procedure:
as §2

The target of assay [13] is T13, monovalent, heterodimeric human ICOS-Fc (human).
T13 construct: Make-up of the heterodimer is not described; also called Monomeric hICOS; monomeric form of human ICOS; not shown: The human IgG1 Fc fused to ICOS, and the partner Fc chain of the heterodimer
T13 chain: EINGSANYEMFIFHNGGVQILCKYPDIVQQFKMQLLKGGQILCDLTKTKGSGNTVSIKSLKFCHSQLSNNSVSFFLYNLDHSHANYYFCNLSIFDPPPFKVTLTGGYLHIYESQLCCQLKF
As to the kind of experiment: BLI (Octet RED96), IgG vs monovalent heterodimeric ICOS-Fc. The procedure: (§3) Affinity measurements were conducted using Bio-Layer Interferometry (BLI) technology (ForteBio Octet® RED96). The monovalent affinities were generated with IgG versions of the antibodies with monovalent, heterodimeric forms of the ICOS receptor. The avid affinities were generated using full-length IgGs against homodimeric forms of the ICOS receptor.

Assay [14] addresses T3, human ICOS-hFc (homodimeric, bivalent). As to the kind of experiment: BLI (Octet RED96), full-length IgG vs homodimeric ICOS-Fc (avid). The procedure: as §3

B1: 7F12 (antibody, V domains shown)
VH: EVQLVESGGGLVKPGGSLTLSCAASGFTFSDYWMDWVRQGPGKGLEWVGNIDEDGSTTYYAPFVKGRFTISRDNAKKTLYLQMNSVKSEDTATYYCTRWGRYAFDSWGQGTLVTVSS
VL: DIVMTQSPSSLAVSPGDKVTINCKSSQSLLSGNYNYLAWYQQKTGQAPKLLIFYASTRHTGVPDRFMGSGSGTDFSLTINSFQTEDLGDYYCQHHYSTPPTFGPGTKLEIK
notes: Armenian hamster monoclonal tested as IgG; also called hamster anti-ICOS 7F12
For the molecule B1, the binding result is listed as “binds” in [1]; “binds” in assay [2]; “no binding” in assay [5]; “no binding” in assay [6]; “no binding” in assay [7]; “no binding” in assay [8]. In addition, the binding result in assay [9], in assay [10], in [11] and in assay [12] was “no binding” in each case. The Kd in [3] was 0.0342 nM; in assay [4], below 0.001 nM; in assay [13], 13.2 nM; in [14], 0.0342 nM. Moreover, the koff is 2.3e-05 s⁻¹ in assay [3], below 1e-07 s⁻¹ in assay [4], 0.00175 s⁻¹ in [13] and 2.3e-05 s⁻¹ in assay [14]. Besides, the kon in [3] came to 674000 M⁻¹ s⁻¹; in assay [4] it was 585000 M⁻¹ s⁻¹; in [13], 133000 M⁻¹ s⁻¹; in assay [14] it was 674000 M⁻¹ s⁻¹.

B2: 37A10 (antibody, V domains shown)
VH: EVQLVESGGGLVKPGGSLKLSCAASGFTFSDYWMDWVRQAPGKGLEWVGNIDEDGSITEYSPFVKGRFTISRDNVKNTLYLQMNSVKSEDTATYYCTRWGRFGFDSWGQGTLVTVSS
VL: DIVMTQSPSSLAVSAGDRVTINCKSSQSLLSGSFNYLTWYQQKTGQAPKLLIFYASTRHTGVPDRFMGSGSGTDFTLTINSFQTEDLGDYYCHHHYNAPPTFGPGTKLELR
notes: Armenian hamster monoclonal tested as IgG; also called hamster anti-ICOS 37A10
Take B2: the binding result in assay [1] was “binds”; in [2], “binds”; in [5], “no binding”; in assay [6] it was “no binding”; in assay [7], “no binding”; in assay [8], “no binding”. Besides, the binding result in assay [9], in [10], in [11] and in assay [12] was “no binding” throughout. The Kd in assay [3] is below 0.001 nM; in [4], below 0.001 nM; in assay [13], 3.18 nM; in assay [14], 0.0342 nM. Further, the off-rate constant (koff) is below 1e-07 s⁻¹ in assay [3], below 1e-07 s⁻¹ in [4], 0.000479 s⁻¹ in [13] and 2.3e-05 s⁻¹ in assay [14]. Besides, the on-rate constant (kon) came out at 625000 M⁻¹ s⁻¹ in [3], 712000 M⁻¹ s⁻¹ in assay [4], 151000 M⁻¹ s⁻¹ in assay [13] and 674000 M⁻¹ s⁻¹ in [14].

B3: 16G10 (antibody, V domains shown)
VH: EVQLVESGGGLVKPGGSLKLSCAASGFTFSDYWMDWVRQAPGKGLEWVGNIDHDGNIINFAPSVKGRFTISRDNAKNTLYLQMNSVKSEDTATYYCARWGHYAFDSWGQGTLVTVSS
VL: DIVMTQSPSSLAVSAGDKVTINCKSSQSLLSSGYNYLIWYQQKTGQAPKLLIFYASTRHTGVPDRFIGSGSGTDFTLTITSFQTEDLGDYYCQHHYSSPPTFGPGTKLEIK
notes: Armenian hamster monoclonal tested as IgG; also called hamster anti-ICOS 16G10
Turning to B3, the binding result in assay [1] was “binds”; in assay [2], “binds”; in assay [5], “no binding”; in assay [6] it was “no binding”; in assay [7] it was “no binding”; in assay [8], “no binding”. In addition, the binding result in assay [9], in assay [10], in [11] and in assay [12] was “no binding” each time. The Kd was below 0.001 nM in [3], below 0.001 nM in [4], 4.37 nM in assay [13] and below 0.001 nM in [14]. The koff in assay [3] is below 1e-07 s⁻¹; in assay [4], below 1e-07 s⁻¹; in assay [13], 0.000712 s⁻¹; in [14], below 1e-07 s⁻¹. Further, the kon amounted to 626000 M⁻¹ s⁻¹ in assay [3], 647000 M⁻¹ s⁻¹ in [4], 163000 M⁻¹ s⁻¹ in assay [13] and 1.01e+06 M⁻¹ s⁻¹ in assay [14].

B4: 36E10 (antibody, V domains shown)
VH: EVQLVESGGGLVKPGGSLKLSCAASGFTFSDYWMDWVRQAPGKGLEWVGNIDEDGSITEYSPFVKGRFTISRDNVKNILYLQMNSVKSEDTATYYCTRWGRFAFDSWGQGTLVTVSS
VL: DIVMTQSPSSLAVSPGDRVTINCKSSQSLLSGSFHYLTWYQQKTGQAPKLLIFYASTRHTGVPDRFMGSGSGTDFTLTINSFQTEDLGDYYCHHHYNAPPTFGPGTKLELR
notes: Armenian hamster monoclonal tested as IgG; also called hamster anti-ICOS 36E10
As for B4, the binding result is “binds” in assay [1]; “binds” in assay [2]; “no binding” in [5]; “no binding” in assay [6]; “no binding” in assay [7]; “no binding” in [8]. Further, the binding result in assay [9], in assay [10], in assay [11] and in [12] was “no binding” throughout. Further, the Kd in [3] is below 0.001 nM; in assay [4], below 0.001 nM; in [13], 1.59 nM; in [14] it was below 0.001 nM. In addition, the koff in assay [3] was below 1e-07 s⁻¹; in assay [4], below 1e-07 s⁻¹; in [13], 0.000228 s⁻¹; in assay [14], below 1e-07 s⁻¹. In addition, the on-rate (kon) in assay [3] is 617000 M⁻¹ s⁻¹; in [4] it was 697000 M⁻¹ s⁻¹; in [14] it was 626000 M⁻¹ s⁻¹.
